Test results as given in the nanobody polyreactivity screen of Harvey et al. (2022).

Assay: yeast display, Sf9 membrane polyspecificity reagent, FACS + sequencing; frameworks hold sequencing errors
How it was run: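 Using colony PCR, genes from sorted yeast display clones were amplified, then sequenced on MiSeq at 2 × 250 and filtered by CDR length. The clones had been stained with 10% biotinylated, detergent-solubilized Sf9 membrane reagent for 1 hour at 4 °C and sorted by FACS into low and high (top ~1%) gates on anti-HA and streptavidin fluorescence. Polyreactivity labels come from the gate of origin.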

Sequence	polyreactivity (PSR sort gate)
QVQLVESGGGLVQAGGSLRLSSAASGSTFIRYAMGWYRQAPGKERELVAAISTSGGSTYYADSVKGRFTISRDNAKNTVYLQMNSLKPEDTAVYYCNAVSRSYRYAGVPGFHYDYWGQGTQVTVSS	high polyreactivity
QVQLVESGGGLVQAGGSLRLSCAASGSILNSYAMGWYRQAPVKERELVARITGDGGITYYADSVKGRFTISRDNAKNTVYLQMNSLKPEDTAVYYCNAEVVALRRDTIYDYWGQGTQVTVSS	low polyreactivity
HVQLVESGGGLVQAGGSLRLSCAASGSTFIGYDMGWYTQAPGKERELVAAISYYDGTYYADSVNGSFTISRDNAKNTVYLQMNTLKPEDTAVYFCGVYRYDYWGQGTQVTVSS	low polyreactivity
QVQLVESGGGLVQAGGSLRLSCAASGSIFGTNTMGWYRQAPGKERELVAAISGGGSTYYADSVKGRFTISRDNAKNTVYLQMNSLKPEDTAVYYCAVRSLRVDKYGYWGQGTQVTVSS	high polyreactivity
QVQLVESGGGLVQAGGILRLSCAASGRIYEIYAMGWYRQAPGKDRELVAAISWRGVSTYYADSVKGPFTISRDNAKNNVYLQMNSLKPEDTAVYYCNKDVDYFWYVEYDYWGQGTQVTVSS	low polyreactivity
QVQLVESGGGLVQAGGSLRLSCAASGSIFGLYAMGWYRQAPGKERDLVAVITYYVGTTYYADSVKGRFTISRDTAKNTVYLQMHSLKPEDTAVYYCAADLYWYYPWSAYYGEYDYWGQGTQVTVSS	low polyreactivity
QVQLEESGGGLVQAGGSLRLSCAASGRIFAYYAMGLYRQAPGKERELVAAITTNGGGTYYADSVKGRFTISRDNAKNTVYLQMNSLKPEDTAVYYCNAVKQRSSFYDYWGQGTQVTVSS	low polyreactivity
QVQLVESGGGLVQAGGSLRLSCAASGSTLGYYDMGWYRQAPGKERELVAAITKSGGSTYYADSVKGRFTISRDNEKNNVYLQMNSLKPEDTAVYYCAAVYVSPKPGTRYYYWGQGTQVTVSS	high polyreactivity
QVQLVESGGGLVQAGGSLRLSCAASGITFPFNAMGWYRQAPGKERELDAAISSTGSTNYADSVKGRFTISRDNAKNTVYLQMNSLKPEDTAVYYCNKRSNYRRGDGRRHLYWGQGTQVTVSS	low polyreactivity
QVQLVESGGGLVQAGGSLRLSCAASGRIFVRNAMGWYRQAPGKERELVATITSIGGRTYYADSVKGRFTISRDNAKNTVYLQMNSLKPEDTAVYYCAAYNTQSYPAYLRYDYWGQGTQVTVSS	low polyreactivity
QVQLVESGGGLVQAGGSLRLSCAASGSTFSVYGMGWYRQAPGKERELVAINIIGGSTYYADSVKGRFTISRDNAKNTVYLQMNSLKPEDTAVYYCAADSFPSEFDYWGQGTQVTVSS	low polyreactivity
QVQLVESGGGLVQAGGSLRLSCAASGFIFPYYDMGWYRQAPGKERELVADIDSSGGTTYYADSVKGRFTISRDNAKNTVYLQMNSLKPEDTAVYYCAATYQAWTWYPYYVIYDYWGQGTQVTVSS	high polyreactivity
QVQLVESGGGLVQAGGSLRLSCAASGSTFWSNAMGWYRQAPGKERELVAAITRGGSTNYADSVKGRFTISRDNAKNTVYLQMNSLKPEDTAVYFCAATYVPYGRRLYAYYYWGQGTQVTVSS	high polyreactivity
QVQLQESGGGLVQAGGSLRLRCAASGSISRLDYMGWYRQASGKELELVAAIDNGSTTYYADSVKGRLTISRDNEKYTVYLKMNSLKPEDTAVYFCAAVRGRGGTHAYWGQGTQVTVSG	low polyreactivity
QVQLVESGGGLVQAGGSLLLSCAASGLTFYLYAMGWYRQAPGKERELVAPISRRGGSTYYADSVKGRFTISRDNAKNTVYFQMKSLKPEYTAVYYCAGAFYSQTDYKFYYWGQGTQVTVSS	high polyreactivity
QVQLEESGGGLVQAGGRLRLSCAASGSTFVDYAMGWYRQAPGKQRELVAAISWRGGSTYYADSVKGRFTISRDNAKKTVYLQMNSLKPEDTAVYYCAAEHSGRSPYGYGYWGQGTQVTVSS	high polyreactivity
QVQLVESGGGLVQAGGSLRLSCAASGSTFQDYAMGWYRQAPGKERELVAAITYSGGSTYYADSVKGRFTISRDNAKNTVYLQLNSLKPDVTAVYYCAAKDTTVFYYDDDYWGQGTQVTVSS	low polyreactivity
QVQLVESGGGLVQAGGSLRLSCAASGSIFAYYAMGWYRQAPGKERELVAAITSGDSTYYADSVKGRFTISRDNAKNTVYLQMNSLKPEDTAVYYCAADHIWFYFYLYDYWGQGTQVTVSS	high polyreactivity
QVQLVEAGGGLVQAGGSLRLSCAASGRILRYYTMGWYRPAPGKERELVAAISRRGTSTHYADSVKGRFTISRDHAKNTVYLQMNSLKPEDTAVYYCAADPSVWSDYYYWGQGTQVTVSS	high polyreactivity
QVQLVESGGGLVQAGGSLRLSCAASGSTFILYAMGWYRQAPGKERELVAAISKRGGSTYYADSVKGRFTISRDNATHTVYFQLKSLKPEDTAVYYLNKKNPQDLTENGYWGQGTEVTVSS	high polyreactivity
QVQLVESGGGLVQAGGSLRLSCAASGRILKVYAMGWSRQAPGKERELVAAITSGSSTYADSVKGRFTISRDNAKNTVYLQMNSLKPEDTAVYYCAAVFWVDILPGDYWGQGTQVTVSS	low polyreactivity
QVQLVESGGGLVQAGGSLRLSCAASGSTFRWNAMGWYRQAPGKERELVAAISNGGSTNYADSVKGRFTISRDNAKNTVYLQMNSLKPEDTAVYYCATDGWYGQHYYDYDFDYYYWGQGTQVTVSS	low polyreactivity

Sequence	polyreactivity (PSR sort gate)
QVQLVESGRGLVQAGGSLRLSSAASGSTFHQYTMGWYRQAPGKERELVAGITYRGGSTYADSVKGLFTISRDNAKNTVYLQMNSLKPDDTAVYYCNATPDSVRWDYALSVVRYDYWGQGTQVTVSS	low polyreactivity
QVQLVESGGGLLQAGGSLRLSCAASGGIFQGNVMGWYRQAPGKERELVASIRRGGSTNYADSVKGRFTISRDNAKNTVYLQMNSLKPEDTAVYYCAARKWVGYHVWPLREYNYWGQGTQVTVSS	low polyreactivity
QVQLVESGGGLVQAGGSLRLSCAASGRIIGYYAMGWYRQAPGKERELVAAITSSGSRTYYADSVKGRFTISRDNAKNTVYLQMNSLKPEDTAVYYCATTKVYYSSKSSYYYWGQGTQVTVSS	high polyreactivity
QVQLVESGGGLVQAGGSLRLSCAASGRTFSPNSMVWYRPAPGKERELVAAITRSDGRTYYADSVKGRFTISRDNAKNTVYLQMNSLKPEDTAVYYCAVDGYYPPAWYEYDYWGQGTQVTVSS	high polyreactivity
QVQLVESGGGLVQAGGSLRLSCAASGIFGGYAMGWYRQAPGKERELVAAIRYSSGSTYYADSVKGRFTISRDNAKNTVYLQMKSLKPEDTAVYYCAAEVVEAPDNDYWGQGTQVTVSS	low polyreactivity
QVQLVESGGGLVQAGGSLRLSCAASGRIFRYNAMGWYRQAPGKERELVAAITNSCSTNYADSVKGRFTISRDNAKNTVYLQMNSMKQEDTAVYYCAARARFYGGRSYDYWGQGTQVTVSS	high polyreactivity
QVQLVESGGGLVQAGGSLRLSCAASGSISGWYAMGWYRHAPGKERELVADISSIDGSTYYADSVKGRFTISRDNEKNTVYLQMNSLKPEDTSVYYCSADRGFYYEYDYWGQGTQVTVSS	low polyreactivity
QDQLEESGGGLLQARGSLRLSCAASGSIFTCNGRGWYRQAPGKERELVAAISNGASTNYADSVKGRFTISRDNAKNSVYLQMNSLKPEDTAVYYCAAKSTGRYDYWGQGTQGTVSS	low polyreactivity
QVQLVESGGGLVQAGGSLRLSCAASGYIFLFYGMGWYRQAPGKERELVASITGTGGNTYYADSVKWRFTISRDNAKNTVYLQMNSLKPEDTAVDYCYADDGYSWGYAYYYSELDYWGQGTQVTVSS	low polyreactivity
QVQLVESGGGLVQAGGSLRLSCAASRYYAMGWYRQAPGKERELVPAITWSGGTTYYADSVKGRFTISRYNGKNTVYLQMNSLTPEDTAVYYCNADFVRFTRHKKYYYWGQGTQVTVSS	low polyreactivity
QVQLVESGGGLVQAGGTLRLSCAASGYIFAWYAMGWYRQAPGKERELVATITWRGGSTYYADSVKGRFTISRDNAKNTVYLQMNSLKPEDTAVYYCNKDVTPLHYDSWGQGTQVTVSS	high polyreactivity
QVQLVESGGGLVQAGGSLRLSCAASGRTFPYYAMGWYRQAPGKETELVASISYRGGNTYYADSVKGRFTISRDNAKNTVYLQMNSQKPEDTAVYYCAKTGRYSARDDYWGQGTQVTVSS	high polyreactivity
QVQLVESGGGLVQAGGSLRLSCAASGSTFYKYAMGWYRQAPGKERELVASISRRAGSTYYADSVKGRFTISRDNAKNTVYLQMNSLKPEDTAVYYCAAVGRYDRVFDYDYWGQGTQVTVSS	high polyreactivity
QVQLVESGGGLVQAGGSLRLSCAASGIIFDYNAMGWYRPAPGKERELVAAITSTDNTNYADSVKGRFTISRDNAKNTVYLQMNCLKPEDTAVYYCNTDYWLSVVYAMDYWGQGTQVTVSS	low polyreactivity
QVQLVESWGGLVQAGGSLRLSCADSGRIFLRNTMGWYRQAPGKERELVATISKSAGSTYYADSVKGRFTISRDNAKNSVYLQMNSLKPEDTAVYYCATSRYLKLGYDYWGQGTQVTVSS	high polyreactivity
QVQLVESGGGLVQAGGSLRLSCAASGSIFSWYAMAWYRQAPGKETELVADITWTVGSTYYADSVKGRFTISRDNAKNPVYLQMNSLIPEDTAVYYWAARRVVYRYYWYSAYDYSGQGTQVTVSS	high polyreactivity
QVQLVESGGGLVQAGGSLRLSCAASGRIFRVYAMGWYRQAPGKERELVAAISSRGGRTYYADSVKGRFTISRDNAKNTVYLQMNSLKPEDTAVYYCAADGRSCSRTTSRYDYWGQGTQVTVSS	high polyreactivity
QVQLVESGGGLVQAGGSLRLSCAASGSTFDVYAMGWYRQAPGKERELVATISWIGGSTYYADSVKGRFTISRDYAKKTVYLQMNSLKPEDTAVYYCAAESSPLEYDYWGQGTQVTVSS	low polyreactivity
QVQLVESGGGLVQAGGSLRLSCAASGRIFYYTMVWYRQAPGKERELVAAISWSGGSTYYADSVKGRFTISRDNAKNTVYLQMNSLKPEDTAVYYCATRSRRLYHYDYWGQGTQVTVSS	high polyreactivity
QVQLVESGGGLVQAGGILRLSCAASGSIFVNNAMGLYRQAPGKERELVAAITSGTRTNYADSVKGRFTISRDNAKNTVYLQMNSLKPEDTAVYYCAAVKYRYAYVPPRFDYWGQGTQVTVSS	low polyreactivity
QVQLVESGGGLVQAGGSLRLSCAASGSTFYPYFMGWYREAPGKERELVAAITYRGSTYYADSVKGRFTISRDNAKYTVYLQMNSLKPEDTAVYYCAAAVYAIDYTYYYWGQGTQVTVSS	high polyreactivity
